Laboratory results: US20240287163A1 (Chugai, published 2024)
Residue numbers refer to the chain shown, from its start. Blank lines part the entries; values can stand above or below the binder they belong to.

Columns and labels:
[1] = target: T1, recombinant human C1r2s2 tetramer (human, UniProt P09871 16-688; P00736 18-705); assay: SPR (Biacore T200), 37 C, pH 7.4; hC1r2s2 captured by IPN009, antibody as analyte
T1 construct: C1s and C1r co-expressed in HEK293 and purified from the supernatant as tetramer; also called hC1r2s2
T1 chain 1: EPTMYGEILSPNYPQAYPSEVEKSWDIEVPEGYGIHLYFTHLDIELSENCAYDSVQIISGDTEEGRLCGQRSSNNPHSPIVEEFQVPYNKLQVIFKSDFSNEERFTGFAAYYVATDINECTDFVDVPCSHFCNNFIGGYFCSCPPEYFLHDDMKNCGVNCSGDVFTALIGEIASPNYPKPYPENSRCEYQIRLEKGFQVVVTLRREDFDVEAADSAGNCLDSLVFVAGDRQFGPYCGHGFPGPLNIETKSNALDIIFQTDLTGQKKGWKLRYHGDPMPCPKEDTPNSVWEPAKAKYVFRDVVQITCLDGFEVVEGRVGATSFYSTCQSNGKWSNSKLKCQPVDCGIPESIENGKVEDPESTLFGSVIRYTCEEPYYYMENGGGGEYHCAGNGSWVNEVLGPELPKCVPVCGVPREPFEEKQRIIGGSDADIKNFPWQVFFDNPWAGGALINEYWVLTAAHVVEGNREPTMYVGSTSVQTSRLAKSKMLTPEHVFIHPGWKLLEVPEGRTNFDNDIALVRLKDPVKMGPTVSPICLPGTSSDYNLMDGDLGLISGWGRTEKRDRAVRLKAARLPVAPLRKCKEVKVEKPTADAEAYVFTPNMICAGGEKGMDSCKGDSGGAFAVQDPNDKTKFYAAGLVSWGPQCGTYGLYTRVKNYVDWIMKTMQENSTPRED
T1 chain 2: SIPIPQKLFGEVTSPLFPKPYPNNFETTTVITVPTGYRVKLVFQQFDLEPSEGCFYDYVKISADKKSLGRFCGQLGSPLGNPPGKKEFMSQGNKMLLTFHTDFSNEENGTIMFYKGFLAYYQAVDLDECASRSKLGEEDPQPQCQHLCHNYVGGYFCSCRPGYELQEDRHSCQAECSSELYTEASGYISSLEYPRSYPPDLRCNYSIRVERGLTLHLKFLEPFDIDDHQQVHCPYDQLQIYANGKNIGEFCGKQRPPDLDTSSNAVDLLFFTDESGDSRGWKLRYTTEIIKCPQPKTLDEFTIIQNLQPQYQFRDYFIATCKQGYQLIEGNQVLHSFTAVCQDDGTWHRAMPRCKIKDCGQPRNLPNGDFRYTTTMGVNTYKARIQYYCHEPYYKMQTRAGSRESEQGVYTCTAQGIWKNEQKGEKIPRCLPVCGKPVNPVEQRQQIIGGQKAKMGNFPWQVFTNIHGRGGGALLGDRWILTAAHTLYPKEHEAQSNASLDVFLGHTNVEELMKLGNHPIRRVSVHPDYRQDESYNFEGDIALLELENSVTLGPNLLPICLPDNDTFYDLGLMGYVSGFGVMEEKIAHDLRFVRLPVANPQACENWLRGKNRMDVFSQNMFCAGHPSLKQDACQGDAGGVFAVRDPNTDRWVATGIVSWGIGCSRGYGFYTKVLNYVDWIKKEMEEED
Description: (§1) The binding property of each sample at pH7.4 and pH6.0 was determined at 37° C. using BIACORE® T200 instrument (Cytiva). […] 20 mM ACES, 150 mM NaCl, 1.2 mM CaCl₂, 1 mg/mL BSA (not containing IgG), 1 mg/mL CMD, 0.05% Tween® 20, 0.005 w/v % NaN₃, pH7.4 or pH6.0 buffer was used as the running buffer. […] The antibody solution was added thereto at 30 μL/min for 120 seconds, the running buffer was then added at 30 μL/min for 180 seconds, and the dissociation constant (KD) of each antibody for hC1r2s2 and cyC1r2s2 was calculated. […] The sensor surface was regenerated every cycle, using 3 M MgCl2 (prepared in-house). The KD value was calculated using BIACORE® T200 evaluation software version 2.0 (Cytiva). The binding strengths under each pH condition were compared by dividing the KD value at pH6.0 with the KD value at pH7.4.

[2] = target: T2, recombinant cynomolgus C1r2s2 tetramer (cynomolgus monkey, limits assumed); assay: SPR (Biacore T200), 37 C, pH 6.0; cyC1r2s2 captured by IPN009, antibody as analyte
T2 construct: also called cyC1r2s2; monkey C1r2s2
T2 chain 1: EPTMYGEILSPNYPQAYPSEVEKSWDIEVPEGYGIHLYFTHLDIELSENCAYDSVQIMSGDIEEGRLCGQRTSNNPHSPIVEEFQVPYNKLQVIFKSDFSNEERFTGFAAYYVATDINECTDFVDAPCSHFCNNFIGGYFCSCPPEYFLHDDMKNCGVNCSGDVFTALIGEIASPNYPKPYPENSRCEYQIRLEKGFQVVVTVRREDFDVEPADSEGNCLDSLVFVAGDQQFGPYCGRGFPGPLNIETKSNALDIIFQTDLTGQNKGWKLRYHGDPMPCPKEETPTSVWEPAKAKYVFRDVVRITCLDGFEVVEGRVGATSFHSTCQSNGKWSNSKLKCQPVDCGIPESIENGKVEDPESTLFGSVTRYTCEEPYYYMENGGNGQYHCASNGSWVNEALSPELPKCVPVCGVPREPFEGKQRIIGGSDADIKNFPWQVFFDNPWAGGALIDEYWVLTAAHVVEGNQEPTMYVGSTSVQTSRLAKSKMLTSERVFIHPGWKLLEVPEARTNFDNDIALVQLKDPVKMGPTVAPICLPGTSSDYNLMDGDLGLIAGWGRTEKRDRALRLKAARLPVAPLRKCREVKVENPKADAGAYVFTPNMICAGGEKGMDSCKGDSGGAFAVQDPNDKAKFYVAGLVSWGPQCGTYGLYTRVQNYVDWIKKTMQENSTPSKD
T2 chain 2: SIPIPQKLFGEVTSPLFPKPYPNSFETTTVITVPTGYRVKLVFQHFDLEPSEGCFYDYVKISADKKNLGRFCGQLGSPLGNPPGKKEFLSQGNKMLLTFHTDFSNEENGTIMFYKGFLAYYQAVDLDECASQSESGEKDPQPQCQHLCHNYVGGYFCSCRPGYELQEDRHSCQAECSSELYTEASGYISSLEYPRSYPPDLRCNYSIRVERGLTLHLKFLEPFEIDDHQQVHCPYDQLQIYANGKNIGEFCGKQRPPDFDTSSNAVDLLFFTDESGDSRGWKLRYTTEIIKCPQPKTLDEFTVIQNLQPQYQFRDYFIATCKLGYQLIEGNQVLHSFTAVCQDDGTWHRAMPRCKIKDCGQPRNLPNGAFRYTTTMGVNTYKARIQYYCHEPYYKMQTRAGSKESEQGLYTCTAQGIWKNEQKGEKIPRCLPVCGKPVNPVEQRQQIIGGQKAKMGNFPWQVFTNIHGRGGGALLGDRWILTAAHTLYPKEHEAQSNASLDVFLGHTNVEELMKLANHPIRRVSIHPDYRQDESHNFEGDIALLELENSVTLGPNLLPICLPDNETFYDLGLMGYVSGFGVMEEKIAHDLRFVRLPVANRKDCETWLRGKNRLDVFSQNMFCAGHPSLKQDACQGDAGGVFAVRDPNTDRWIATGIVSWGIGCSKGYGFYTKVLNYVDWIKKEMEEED
Description: as §1

[3] = target: T1, recombinant human C1r2s2 tetramer; assay: SPR (Biacore T200), 37 C, pH 6.0; hC1r2s2 captured by IPN009, antibody as analyte
Description: as §1

[4] = target: T2, recombinant cynomolgus C1r2s2 tetramer; assay: SPR (Biacore T200), 37 C, pH 7.4; cyC1r2s2 captured by IPN009, antibody as analyte
Description: as §1

[5] = target: T1, recombinant human C1r2s2 tetramer; assay: SPR (Biacore T200), 37 C; ratio of KD at pH 6.0 to KD at pH 7.4
Description: as §1

[6] = target: T2, recombinant cynomolgus C1r2s2 tetramer; assay: as above
Description: as §1

B1: COS0637pHv17-G1A3FcgSil+LowpI (antibody, V domains shown)
VH: QVQLVESGGGVVQPGRSLRLSCAASGFTFSAYAMNWIRQPPGKGLEWIGLIYGSGHEFYASWAEERVTISVDTSKNQFSLKLSSVTAADTAVYYCARGRSKNYNSDFHLWGQGTLVTVSS
VL: DIQMTQSPSSLSASVGDRVTITCQAHEILHDKKNLAWYQQKPGQPPKLLIYGASQRESGVPSRFSGSGSGTDFTLTISSLQPEDFATYYCHGEFPHSSADLNHFGQGTKVEIKR
notes: VH 24, VL 55, CH 45, CL 23
- Kd [1]: 0.23 nM
- Kd [2]: 106 nM
- Kd [3]: 32.9 nM
- Kd [4]: 0.252 nM
- KD (pH 6.0)/KD (pH 7.4) [5]: 143
- KD (pH 6.0)/KD (pH 7.4) [6]: 421

B3: COS0637pHv16-G1A3FcgSil+LowpI (antibody, V domains shown)
VH: B1 VH with A33T
VL: B1 VL
notes: VH 36, VL 55, CH 45, CL 23
- Kd [1]: 0.181 nM
- Kd [2]: 91.2 nM
- Kd [3]: 29.2 nM
- Kd [4]: 0.196 nM
- KD (pH 6.0)/KD (pH 7.4) [5]: 161
- KD (pH 6.0)/KD (pH 7.4) [6]: 465

B5: COS0637pHv15-G1A3FcgSil+LowpI (antibody, V domains shown)
VH: B1 VH
VL: B1 VL with H26N, Q55T, R56L, P95S, H96Y, S97H, H103T
notes: VH 24, VL 59, CH 45 (G1A3FcgSil+LowpI), CL 23
- Kd [1]: 0.399 nM
- Kd [2]: 111 nM
- Kd [3]: 318 nM
- Kd [4]: 0.492 nM
- KD (pH 6.0)/KD (pH 7.4) [5]: 797
- KD (pH 6.0)/KD (pH 7.4) [6]: 226

The remaining binders from weak to strong by Kd [1], led by results:

- Kd [1]: 0.272 nM
- Kd [2]: 30.3 nM
- Kd [3]: 19.3 nM
- Kd [4]: 0.365 nM
- KD (pH 6.0)/KD (pH 7.4) [5]: 71
- KD (pH 6.0)/KD (pH 7.4) [6]: 83
B4: COS0637pHv8-G1A3FcgSil+LowpI (antibody)
heavy: QVQLVESGGGVVQPGRSLRLSCAASGFTFSAYAMNWIRQPPGKGLEWIGLIYGSGHEFYASWAEERVTISVDTSKNQFSLKLSSVTAADTAVYYCARGRSKNYNSDFHLWGQGTLVTVSSASTKGPSVFPLAPSSRSTSESTAALGCLVKDYFPEPVTVSWNSGALTSGVHTFPAVLQSSGLYSLSSVVTVPSSSLGTQTYICNVNHKPSNTKVDKRVEPKSCDKTHTCPPCPAPELRRGPSVFLFPPKPKDTLMISRTPEVTCVVVDVSQEDPEVQFNWYVDGVEVHNAKTKPREEQYNSTYRVVSVLTVLHQDWLNGKEYKCKVSNKALPAPIEKTISKAKGQPREPQVYTLPPSQEEMTKNQVSLTCLVKGFYPSDIAVEWESNGQPENNYKTTPPVLDSDGSFFLYSKLTVDKSRWQEGNVFSCSVLHEALHAHTTRKELSLSP
light: DIQMTQSPSSLSASVGDRVTITCQANQILHDKKNLAWYQQKPGQPPKLLIYGASTLESGVPSRFSGSGSGTDFTLTISSLQPEDFATYYCHGEFSYSSADLNTFGQGTKVEIKRTVAAPSVFIFPPSDEQLKSGTASVVCLLNNFYPREAKVQWKVDNALQSGNSQESVTEQDSKDSTYSLSSTLTLSKADYEKHKVYACEVTHQGLSSPVTKSFNRGEC
notes: built from VH+CH and VL+CL

- Kd [1]: 0.26 nM
- Kd [2]: 62.9 nM
- Kd [3]: 31.3 nM
- Kd [4]: 0.346 nM
- KD (pH 6.0)/KD (pH 7.4) [5]: 120
- KD (pH 6.0)/KD (pH 7.4) [6]: 182
B2: COS0637pHv21-G1A3FcgSil+LowpI (antibody, V domains shown)
VH: B1 VH
VL: B1 VL with G52S, Q55I, R56L, P95S, S97G, A99G
notes: VH 24, VL 47, CH 45, CL 23

- Kd [1]: 0.249 nM
- Kd [2]: 23.3 nM
- Kd [3]: 12.5 nM
- Kd [4]: 0.345 nM
- KD (pH 6.0)/KD (pH 7.4) [5]: 50.2
- KD (pH 6.0)/KD (pH 7.4) [6]: 67.5
B6: COS0637pHv8-TT91R (antibody, human IgG1)
heavy: QVQLVESGGGVVQPGRSLRLSCAASGFTFSAYAMNWIRQPPGKGLEWIGLIYGSGHEFYASWAEERVTISVDTSKNQFSLKLSSVTAADTAVYYCARGRSKNYNSDFHLWGQGTLVTVSSASTKGPSVFPLAPSSKSTSGGTAALGCLVKDYFPEPVTVSWNSGALTSGVHTFPAVLQSSGLYSLSSVVTVPSSSLGTQTYICNVNHKPSNTKVDKRVEPKSCDKTHTCPPCPAPEYLGGDSVFLFPPKPKDVLMISRTPEVTCVVIDVSHEDPEVKFNWYVDGVEVHNAKTKPREEQYNSTYRVVSVLPVLHRDWLNGKEYKCKVSNKALPKPIEKTISKAKGQRREPQVYTLPPSREEMTKNQVSLTCLVKGFYPSDIAVEWESNGQPENNYKTTPPVLDSDGSFFLYSKLTVDKSRWQQGNVFSCSVLHEALHAHTTRKELSLSP
light: B4 light
notes: also called COS637pHv8-TT91R
